Consider one molecule from article PMC9731694, “SRSF5‐Mediated Alternative Splicing of M Gene is Essential for Influenza A Virus Replication: A Host‐Directed Target Against Influenza Virus” (Advanced Science, 2022).

In the assay the target is T1, GST-U1A-His (human (amplified from A549 cells), UniProt P09012 1-282).
T1 construct: also called GST tagged U1A-His
The experiment in a line: pull-down; GST pulldown: 300 ng purified SRSF5-Flag with 150 ng glutathione-bound GST-tagged protein, 300 µL, 1 h at 4 °C; 50 mM Tris pH 7.5, 200 mM NaCl, 10% glycerol, 0.5% Triton-X-100, RNaseA; blot with anti-Flag or anti-His. The conditions noted are these: both partners purified.

T1 sequence (P09012 whole entry): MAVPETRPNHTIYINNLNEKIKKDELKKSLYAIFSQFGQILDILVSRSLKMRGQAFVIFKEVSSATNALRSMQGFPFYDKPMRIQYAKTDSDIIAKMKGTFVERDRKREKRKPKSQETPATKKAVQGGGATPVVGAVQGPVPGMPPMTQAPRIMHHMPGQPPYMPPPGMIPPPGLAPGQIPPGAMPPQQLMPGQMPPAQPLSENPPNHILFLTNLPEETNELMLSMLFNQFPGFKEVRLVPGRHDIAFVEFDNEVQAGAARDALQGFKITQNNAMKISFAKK

B1: purified recombinant SRSF5-Flag (natural protein, human, UniProt Q13243 1-272, looked up)
chain: MSGCRVFIGRLNPAAREKDVERFFKGYGRIRDIDLKRGFGFVEFEDPRDADDAVYELDGKELCSERVTIEHARARSRGGRGRGRYSDRFSSRRPRNDRRNAPPVRTENRLIVENLSSRVSWQDLKDFMRQAGEVTFADAHRPKLNEGVVEFASYGDLKNAIEKLSGKEINGRKIKLIEGSKRHSRSRSRSRSRTRSSSRSRSRSRSRSRKSYSRSRSRSRSRSRSKSRSVSRSPVPEKSQKRGSSSRSKSPASVDRQRSRSRSRSRSVDSGN
notes: also called hSRSF5-Flag; Flag-SRSF5
With B1, the binding result is “binds”.
